Drawing on patent US20150301040A1, this text covers RLU bound and detection limit for one substance.

The target of experiment [1] is human IGF1R-luciferase fusion protein (IGF1R-Luc) (human). The experiment can be described thus: bridge assay: immobilized IGF1R-PGA14tag, antibody at 12 ng/ml, IGF1R-Luc.
The target is the same in experiment [2]. The experiment is described as follows: bridge assay: immobilized IGF1R-PGA14tag, antibody at 0.05 ng/ml, IGF1R-Luc.
For experiment [3] the target is unchanged. The experiment is described as follows: bridge assay: immobilized IGF1R-PGA14tag, antibody at 195 ng/ml, IGF1R-Luc.
For experiment [4] the target is unchanged. The experiment is described as follows: bridge assay: immobilized IGF1R-PGA14tag, antibody at 0.8 ng/ml, IGF1R-Luc.
Experiment [5] has the same target. The experiment can be described thus: bridge assay: immobilized IGF1R-PGA14tag, antibody at 50000 ng/ml, IGF1R-Luc.
The target is the same in experiment [6]. The experiment can be described thus: bridge assay: immobilized IGF1R-PGA14tag, antibody at 12500 ng/ml, IGF1R-Luc.
Experiment [7] shares this target. The experiment can be described thus: bridge assay: immobilized IGF1R-PGA14tag, antibody at 3125 ng/ml, IGF1R-Luc.
The target is the same in experiment [8]. The experiment can be described thus: bridge assay: immobilized IGF1R-PGA14tag, antibody at 0.2 ng/ml, IGF1R-Luc.
For experiment [9] the target is unchanged. The experiment can be described thus: bridge assay: immobilized IGF1R-PGA14tag, antibody, IGF1R-Luc.
Experiment [10] shares this target. The experiment can be described thus: bridge assay: immobilized IGF1R-PGA14tag, antibody at 781 ng/ml, IGF1R-Luc.
The target is the same in experiment [11]. The experiment is described as follows: bridge assay: immobilized IGF1R-PGA14tag, antibody at 49 ng/ml, IGF1R-Luc.
For experiment [12] the target is unchanged. The experiment can be described thus: bridge assay: immobilized IGF1R-PGA14tag, antibody at 3 ng/ml, IGF1R-Luc.

human IGF1R-luciferase fusion protein (IGF1R-Luc) (human), sequence (chain, as listed by the source limits assumed): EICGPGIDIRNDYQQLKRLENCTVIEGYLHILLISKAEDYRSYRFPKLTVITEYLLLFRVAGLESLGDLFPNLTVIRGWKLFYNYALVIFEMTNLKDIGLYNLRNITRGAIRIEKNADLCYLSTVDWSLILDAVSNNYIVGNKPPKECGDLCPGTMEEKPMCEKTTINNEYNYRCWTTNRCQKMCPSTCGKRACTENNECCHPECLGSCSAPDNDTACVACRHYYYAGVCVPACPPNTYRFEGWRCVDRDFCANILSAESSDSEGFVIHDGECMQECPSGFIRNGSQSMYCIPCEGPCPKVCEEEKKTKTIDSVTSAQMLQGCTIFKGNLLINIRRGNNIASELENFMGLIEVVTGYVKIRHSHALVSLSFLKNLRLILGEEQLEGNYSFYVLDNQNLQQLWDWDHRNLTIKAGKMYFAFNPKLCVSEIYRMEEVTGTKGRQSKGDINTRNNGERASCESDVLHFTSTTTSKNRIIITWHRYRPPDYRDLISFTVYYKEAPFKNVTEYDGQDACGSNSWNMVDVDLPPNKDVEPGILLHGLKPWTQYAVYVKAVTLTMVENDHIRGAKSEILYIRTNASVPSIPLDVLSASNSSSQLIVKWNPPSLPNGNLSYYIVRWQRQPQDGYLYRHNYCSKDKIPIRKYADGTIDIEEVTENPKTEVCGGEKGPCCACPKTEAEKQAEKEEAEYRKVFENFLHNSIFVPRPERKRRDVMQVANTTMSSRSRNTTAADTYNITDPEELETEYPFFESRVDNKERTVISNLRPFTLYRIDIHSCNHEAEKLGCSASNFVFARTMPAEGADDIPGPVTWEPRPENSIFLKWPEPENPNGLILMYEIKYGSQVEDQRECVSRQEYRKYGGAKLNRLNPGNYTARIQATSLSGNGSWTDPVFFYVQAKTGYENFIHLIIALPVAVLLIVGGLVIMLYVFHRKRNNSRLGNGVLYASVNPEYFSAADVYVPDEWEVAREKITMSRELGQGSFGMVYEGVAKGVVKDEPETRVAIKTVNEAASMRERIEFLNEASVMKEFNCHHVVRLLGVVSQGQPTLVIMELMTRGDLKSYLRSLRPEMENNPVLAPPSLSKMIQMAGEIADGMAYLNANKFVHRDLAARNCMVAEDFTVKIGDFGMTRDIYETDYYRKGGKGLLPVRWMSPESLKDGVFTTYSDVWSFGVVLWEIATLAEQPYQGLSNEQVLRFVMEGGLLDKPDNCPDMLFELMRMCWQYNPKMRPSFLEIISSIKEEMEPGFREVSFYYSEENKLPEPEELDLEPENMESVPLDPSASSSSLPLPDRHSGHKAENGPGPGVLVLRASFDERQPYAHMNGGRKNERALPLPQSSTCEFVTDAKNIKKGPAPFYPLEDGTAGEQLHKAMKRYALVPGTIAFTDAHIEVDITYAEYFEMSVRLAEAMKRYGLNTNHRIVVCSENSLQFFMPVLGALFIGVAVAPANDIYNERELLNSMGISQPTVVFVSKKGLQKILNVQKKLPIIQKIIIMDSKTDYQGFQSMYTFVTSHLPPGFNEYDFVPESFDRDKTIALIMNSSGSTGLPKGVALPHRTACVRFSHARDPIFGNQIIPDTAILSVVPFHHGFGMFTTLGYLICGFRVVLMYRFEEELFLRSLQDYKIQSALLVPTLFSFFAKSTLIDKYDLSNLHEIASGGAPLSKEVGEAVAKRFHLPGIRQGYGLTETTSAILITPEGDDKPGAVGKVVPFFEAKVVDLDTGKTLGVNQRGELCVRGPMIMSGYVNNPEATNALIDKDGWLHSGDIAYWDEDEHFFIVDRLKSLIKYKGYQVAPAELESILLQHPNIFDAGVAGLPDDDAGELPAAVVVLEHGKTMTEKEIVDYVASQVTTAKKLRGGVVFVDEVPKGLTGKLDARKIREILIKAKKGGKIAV

Take “Monoclonal antibody to the extracellular domain of IGF1R (anti-IGF1R clone#24-75, Millipore, USA)”: the RLU bound in experiment [1] is 27000 RLU; in experiment [2], 5370 RLU; in [3], 235000 RLU; in experiment [4] it was 8860 RLU; in [5], 805000 RLU; in [6], 767000 RLU. Besides, the RLU bound in experiment [7] was 627000 RLU; in [8], 5900 RLU; in [10], 476000 RLU; in experiment [11] it was 88900 RLU; in experiment [12], 11800 RLU. The substance also registered a detection limit in [9] of 0.2 ng/mL.
